# According to patent publication US20100099609A1:
# How the values were obtained:
# Aβ1-40 = Aβ1-40 (UniProt P05067); experiment: concentration-dependent binding of recombinant netrin-1 to the Aβ peptide; format not stated
# [1] = biological target: Aβ1-17, the 17 first amino acids of Aβ (UniProt P05067); experiment: concentration-dependent binding of recombinant netrin-1 to the peptide; format not stated
substance,measurement,setting,value
recombinant netrin-1 (species not stated) (ligand),Kd,Aβ1-40,22 nM
same,Kd,[1],30 nM
